Publication PMC12608094, “STN1 Shields CTC1 From TRIM32‐Mediated Ubiquitination to Prevent Cellular Aging” (Aging Cell, 2025)
Each block holds one molecule with its values, some of them ahead of it.

Experiments:
[1] = target: T1, Flag-tagged CTC1 (wild type) (human, UniProt Q2NKJ3 1-1217)
T1 sequence (looked up): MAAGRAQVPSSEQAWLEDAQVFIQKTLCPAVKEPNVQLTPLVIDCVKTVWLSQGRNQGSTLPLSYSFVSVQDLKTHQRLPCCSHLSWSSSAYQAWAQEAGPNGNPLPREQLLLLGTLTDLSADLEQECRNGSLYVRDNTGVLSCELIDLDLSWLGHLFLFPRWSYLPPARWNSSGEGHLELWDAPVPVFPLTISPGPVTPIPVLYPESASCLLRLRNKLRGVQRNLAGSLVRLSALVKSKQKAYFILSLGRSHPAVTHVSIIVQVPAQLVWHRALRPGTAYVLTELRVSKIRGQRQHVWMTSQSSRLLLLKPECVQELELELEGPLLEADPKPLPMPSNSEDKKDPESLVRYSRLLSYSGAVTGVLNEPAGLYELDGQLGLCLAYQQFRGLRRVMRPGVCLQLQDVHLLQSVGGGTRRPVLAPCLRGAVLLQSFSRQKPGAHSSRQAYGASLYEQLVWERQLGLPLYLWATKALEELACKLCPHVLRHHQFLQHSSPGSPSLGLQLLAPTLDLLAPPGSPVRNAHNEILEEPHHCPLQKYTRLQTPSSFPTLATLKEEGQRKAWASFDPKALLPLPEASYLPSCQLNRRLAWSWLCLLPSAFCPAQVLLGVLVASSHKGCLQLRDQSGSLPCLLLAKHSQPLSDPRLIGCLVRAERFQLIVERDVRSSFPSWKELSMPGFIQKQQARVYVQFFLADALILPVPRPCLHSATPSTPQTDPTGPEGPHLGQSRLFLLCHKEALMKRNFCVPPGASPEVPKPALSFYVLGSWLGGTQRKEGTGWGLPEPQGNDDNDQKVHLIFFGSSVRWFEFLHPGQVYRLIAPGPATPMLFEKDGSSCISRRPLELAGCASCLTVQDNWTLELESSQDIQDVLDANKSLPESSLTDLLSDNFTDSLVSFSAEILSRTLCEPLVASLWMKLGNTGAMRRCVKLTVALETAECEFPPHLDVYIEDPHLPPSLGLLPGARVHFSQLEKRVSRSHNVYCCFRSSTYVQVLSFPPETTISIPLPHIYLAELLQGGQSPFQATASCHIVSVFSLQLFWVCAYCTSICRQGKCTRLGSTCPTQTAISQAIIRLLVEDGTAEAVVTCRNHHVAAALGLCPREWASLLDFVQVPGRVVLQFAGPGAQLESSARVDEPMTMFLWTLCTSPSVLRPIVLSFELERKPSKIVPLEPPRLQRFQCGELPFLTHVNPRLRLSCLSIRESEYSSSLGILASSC

[2] = target: T1, Flag-tagged CTC1 (wild type); test: cell-based or functional assay

half-life of Flag-CTC1 in HEK293T cells (CHX chase over 12 h) with HA-STN1OB [1]: 8 h
Molecule: HA-tagged STN1 OB (N-terminal half-truncation) (domain or fragment)

half-life of Flag-CTC1 in HEK293T cells (CHX chase over 12 h) with HA-STN1 wHTH [1]: 5 h
Molecule: HA-tagged STN1 wHTH (C-terminal half-truncation) (domain or fragment)

half-life of Flag-CTC1 in HEK293T cells (CHX chase over 12 h) with HA-STN1 WT [2]: 10 h
B1: HA-tagged STN1 (wild type) (natural protein, human, UniProt Q9H668 1-368, looked up)
chain: MQPGSSRCEEETPSLLWGLDPVFLAFAKLYIRDILDMKESRQVPGVFLYNGHPIKQVDVLGTVIGVRERDAFYSYGVDDSTGVINCICWKKLNTESVSAAPSAARELSLTSQLKKLQETIEQKTKIEIGDTIRVRGSIRTYREEREIHATTYYKVDDPVWNIQIARMLELPTIYRKVYDQPFHSSALEKEEALSNPGALDLPSLTSLLSEKAKEFLMENRVQSFYQQELEMVESLLSLANQPVIHSASSDQVNFKKDTTSKAIHSIFKNAIQLLQEKGLVFQKDDGFDNLYYVTREDKDLHRKIHRIIQQDCQKPNHMEKGCHFLHILACARLSIRPGLSEAVLQQVLELLEDQSDIVSTMEHYYTAF
